This note sets out measurements from publication PMC8384837, “Expanding the binding specificity for RNA recognition by a PUF domain”.

The target of one data set is PUF variant QFR/VFQ (human, UniProt Q14671 828-1176, S863Q;R864F;Q867R;N899V;Y900F). The data set is described as follows: EMSA; 10 mM HEPES pH 7.3, 50 mM NaCl, 2 mM DTT, 0.05% Tween 20, 0.1 mg/ml BSA, 0.1 mg/ml yeast tRNA; ~10 nM RNA, 0-1 uM protein, 1 h on ice; 1.2% agarose gel, 1x TBE, room temperature. The settings on record: protein: recombinant; tags: N-terminal GST (pGEX-6P-1) removed by HRV3C protease; label: 5' 32P. For orientation: In EMSA bound probe runs differently from free probe, usually more slowly.
PUF variant QFR/VFQ, sequence (Q14671 828-1176 S863Q/R864F/Q867R/N899V/Y900F): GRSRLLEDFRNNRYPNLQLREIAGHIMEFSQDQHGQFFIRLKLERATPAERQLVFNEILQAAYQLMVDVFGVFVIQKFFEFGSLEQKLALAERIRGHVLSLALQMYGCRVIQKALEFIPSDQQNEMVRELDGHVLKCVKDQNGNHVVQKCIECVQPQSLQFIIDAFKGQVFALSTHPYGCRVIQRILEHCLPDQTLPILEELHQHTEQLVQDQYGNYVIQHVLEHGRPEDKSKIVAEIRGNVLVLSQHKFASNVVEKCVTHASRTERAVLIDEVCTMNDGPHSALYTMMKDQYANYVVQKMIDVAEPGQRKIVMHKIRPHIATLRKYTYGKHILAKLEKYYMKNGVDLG

The next data set has as its target PUF design 2 (human, UniProt Q14671 828-1176, C935T;R936H;Q939E;N971T;H972F;Q975R). The data set is described as above. The settings on record: protein: recombinant; tags: N-terminal GST (pGEX-6P-1) removed by HRV3C protease; label: 5' 32P.

PUF design 2, sequence (Q14671 828-1176 C935T/R936H/Q939E/N971T/H972F/Q975R): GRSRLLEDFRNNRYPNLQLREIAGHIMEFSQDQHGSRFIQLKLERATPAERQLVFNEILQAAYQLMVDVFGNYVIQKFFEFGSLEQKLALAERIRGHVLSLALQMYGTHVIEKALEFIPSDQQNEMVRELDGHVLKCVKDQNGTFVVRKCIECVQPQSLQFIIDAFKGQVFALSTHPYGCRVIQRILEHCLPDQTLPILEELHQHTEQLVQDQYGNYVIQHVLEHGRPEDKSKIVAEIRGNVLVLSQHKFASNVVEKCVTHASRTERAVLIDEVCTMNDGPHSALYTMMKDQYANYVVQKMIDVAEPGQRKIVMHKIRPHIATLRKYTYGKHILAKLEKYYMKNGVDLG

B1: QFR/VFQ target RNA (ssRNA)
RNA: GGUAAGUGUAAAACGUCUGCAU
Consider B1, for which the Kd in the data set with PUF variant QFR/VFQ is about 110 nM.

B2: design 2 target RNA (ssRNA)
RNA: GGUAAGUGUACGUAGUCUGCAU
Take B2: the Kd with PUF design 2 was about 45 nM.

B3: wild-type NRE RNA (ssRNA)
RNA: GGUAAGUGUAAAUAGUCUGCAU
For B3, the binding result with PUF variant QFR/VFQ and with PUF design 2 was “no binding” throughout.

In general, Kd refers to the concentration at which binding is half-saturated.
